Experiments:
[1] = target: VEEV virus-like particles (VLPs) (Venezuelan equine encephalitis virus); test: ELISA, binding reactivity (FIG. 1)
[2] = target: recombinant EEEV E1 glycoprotein (Eastern equine encephalitis virus); test: ELISA, binding reactivity (FIG. 1)

Sequence of VEEV virus-like particles (VLPs) (Venezuelan equine encephalitis virus) (P05674 335-757, chain 1 of 2): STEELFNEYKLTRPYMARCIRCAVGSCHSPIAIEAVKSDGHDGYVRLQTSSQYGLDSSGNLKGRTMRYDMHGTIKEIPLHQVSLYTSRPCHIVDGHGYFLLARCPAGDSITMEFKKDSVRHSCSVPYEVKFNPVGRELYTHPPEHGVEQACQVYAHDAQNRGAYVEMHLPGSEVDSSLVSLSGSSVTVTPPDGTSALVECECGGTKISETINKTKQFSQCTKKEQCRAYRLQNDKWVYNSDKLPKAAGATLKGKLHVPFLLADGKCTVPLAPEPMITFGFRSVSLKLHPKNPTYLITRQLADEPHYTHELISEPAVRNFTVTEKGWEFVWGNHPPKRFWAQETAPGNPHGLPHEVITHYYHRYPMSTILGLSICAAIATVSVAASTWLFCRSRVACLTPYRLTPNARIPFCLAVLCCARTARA
Sequence of VEEV virus-like particles (VLPs) (Venezuelan equine encephalitis virus) (P05674 813-1254, chain 2 of 2): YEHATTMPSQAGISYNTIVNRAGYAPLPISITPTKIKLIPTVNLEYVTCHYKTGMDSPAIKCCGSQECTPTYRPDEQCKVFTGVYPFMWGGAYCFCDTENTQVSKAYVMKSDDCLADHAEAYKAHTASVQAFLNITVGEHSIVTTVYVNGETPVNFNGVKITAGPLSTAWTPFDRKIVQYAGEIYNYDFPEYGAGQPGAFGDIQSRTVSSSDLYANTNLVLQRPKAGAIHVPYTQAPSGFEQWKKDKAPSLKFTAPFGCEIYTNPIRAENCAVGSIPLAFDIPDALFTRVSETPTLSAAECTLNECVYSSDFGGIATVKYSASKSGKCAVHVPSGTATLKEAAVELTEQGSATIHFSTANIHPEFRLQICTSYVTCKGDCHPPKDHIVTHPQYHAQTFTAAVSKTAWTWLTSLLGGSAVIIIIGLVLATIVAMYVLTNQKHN

| Binder | EC50 [1] | EC50 [2] |
| --- | --- | --- |
| VEE-52B (antibody, V domains shown) VH: QVHLLQSGAEVKKPGASVKVSCKSSGHTFASHGISWVRQAPGQGLEWMGWISVYNGNTNYAQKFQGRVIMTTDTPTSTAYMELRSLRSDDTAVYYCAKDIPSASYTMDVWGEGTTVTV VL: QSALTQPRSVSGSPGQSVTISCTGTSSDIGRYDYVSWYHQHPGKAPKLMIYDVTKRPSGVPDRFSGSKSGNTASLTISGLHADDEADYYCCSYAGSFYVFGTGTKVTVL | < 0.02 µg/mL | < 0.02 µg/mL |
| VEE-81 (antibody, V domains shown) VH: QVQLVQSGAEVKKPGASVKVSCKASGYTFTTYYIHWVRQAPGRGLEWMGIINSSGYNTYYAQKFQGRVTMTRDTSTSTVDMELSSLRSEDTAVYYCATSITTRAFDLWGQGTLVTVSS VL: EIVLTQSPGTLSLSPGERVTLSCRASQSVSSIYLAWYQQRPGQAPRLLIYGASSRATGIPDRFSGSGSGTDFTLTIRRLEPEDFAVYYCQQYGSSPYTFGQGTKLEIK | < 0.02 µg/mL | < 0.02 µg/mL |

Source: patent publication US20230181714A1
